From patent US20220089735A1 (SUZHOU KANOVA BIOPHARMACEUTICAL, published 2022)
Positions count from the first letter of the chain named.

T1: human B7S1-his (Sinobiological, cat#10738-H08H-100) (human, UniProt Q7Z7D3 25-259)
T1 construct: extracellular domain; Bought protein; also called human B7S1 extracellular domain; B7-H4; not shown: His tag
T1 sequence (looked up): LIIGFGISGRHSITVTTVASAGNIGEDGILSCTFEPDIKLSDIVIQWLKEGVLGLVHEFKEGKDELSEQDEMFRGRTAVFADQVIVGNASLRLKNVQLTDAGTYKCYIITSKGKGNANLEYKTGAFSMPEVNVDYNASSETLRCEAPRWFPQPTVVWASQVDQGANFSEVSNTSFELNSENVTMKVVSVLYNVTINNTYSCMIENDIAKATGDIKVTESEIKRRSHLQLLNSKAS

T2: mouse B7S1-his (R&D system, cat#4206-B7-100) (mouse, UniProt Q7TSP5 29-256)
T2 construct: Bought protein; not shown: His tag
T2 sequence (looked up): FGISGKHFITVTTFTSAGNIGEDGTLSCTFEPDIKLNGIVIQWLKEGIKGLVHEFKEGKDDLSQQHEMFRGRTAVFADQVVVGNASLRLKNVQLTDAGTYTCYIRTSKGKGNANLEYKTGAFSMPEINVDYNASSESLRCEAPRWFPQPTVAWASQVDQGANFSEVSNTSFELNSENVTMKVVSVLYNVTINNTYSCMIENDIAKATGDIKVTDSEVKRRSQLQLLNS

T3: human B7S1 (NCBI Reference Sequence: NP_078902.2) expressed on a cell surface (human, UniProt Q7Z7D3 25-282)
T3 construct: whole, on cells; the assay field says which cells were used; also called B7S1 overexpressed on cell surface; B7S1 transfected BaF3 cell line
T3 sequence (looked up): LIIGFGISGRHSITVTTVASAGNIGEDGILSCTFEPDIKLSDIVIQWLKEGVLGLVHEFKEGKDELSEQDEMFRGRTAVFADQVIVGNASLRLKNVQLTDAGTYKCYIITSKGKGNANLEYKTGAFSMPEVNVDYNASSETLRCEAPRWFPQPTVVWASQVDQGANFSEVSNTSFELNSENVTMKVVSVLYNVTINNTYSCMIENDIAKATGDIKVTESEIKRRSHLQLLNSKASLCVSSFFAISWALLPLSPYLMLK

B1: humanized anti-B7S1 antibody VH1-5/VL4-5 (antibody, V domains shown)
VH: QVQLVQSGAEVKKPGASVKVSCKASGYTFTSYWMHWVKQAPGQGLEWIAAIYPGNSDTDYNQKFKGKAKITAVTSTSTAYMELSSLRSEDTAVYYCTTTVAHYFDYWGQGTMVTVSS
VL: EIVMTQSPATLSLSPGERATLTCKASQDVSFAVAWYQQKPGQAPKLLISSASYRYTGVPDRFSGSGSGTDFTLTISSLEPEDFAVYYCQQHYNTPLTFGGGTKVEIK
notes: Tested as a whole antibody with a human Fc (detected with anti-human IgG, Fc capture in SPR)
B2: humanized anti-B7S1 antibody VH1-4/VL4-5 (antibody, V domains shown)
VH: B1 VH with K38R, A79V
VL: B1 VL
notes: as for B1
B3: humanized anti-B7S1 antibody VH1-5/VL4-4 (antibody, V domains shown)
VH: B1 VH
VL: B1 VL with M4L, T22S, K45R
notes: as for B1

These binders were tested against T1, human B7S1-his (Sinobiological, …) (assay: ELISA, antigen coated on plate).
Protocol: (§1) In order to test humanized anti-B7S1 antibody binding affinity, an ELISA analysis was carried out. 2 μg/ml of human B7S1-his (Sinobiological, cat#10738-H08H-100), mouse B7S1-his (R&D system, cat#4206-B7-100), and cynomolgus B7S1 extracellular domain (Leu25-Ser259, NCBI Reference Sequence: XP_005542249.1) were coated on MaxiSorp 96-well plates (NUNC, 449824) in 0.5M carbonate/bicarbonate buffer, pH9.6, incubated at 4° C. over night. Coated plates were blocked with skimmed milk (5%, in PBST) for 1h. Humanized anti-B7S1 antibodies were diluted and added to the plates, and incubated for 2h at room temperature. Washed three times with PBST (lx PBS with 0.05% tween-20) to eliminate un-bounded antibodies. Goat anti-Human IgG-HRP (Easybio, BE0122, 1:5000 in PBS) was added and incubated for 1h. Washed three times with PBST (lx PBS with 0.05% tween-20) to eliminate un-bounded antibodies. TMB (eBioscience, 00-4201-56) was added (50 ul/well) for color rendering and stopped by 2N H₂SO₄ (50 ul/well). Optical density was measured at 450 nm and 570 nm.

| EC50 [nM] | Binder |
| --- | --- |
| 0.52 | B1 |
| 0.25 | B2 |
| 0.4 | B3 |

These binders were tested against T2, mouse B7S1-his (R&D system, …) (assay: ELISA, antigen coated on plate).
Protocol: as §1

| EC50 [nM] | Binder |
| --- | --- |
| 1.09 | B1 |
| 1.59 | B2 |
| 0.88 | B3 |

Each binder was assayed against T4, cynomolgus B7S1 extracellular domain (Leu25-Ser259, NCBI Reference Sequence: XP_005542249.1) (cynomolgus monkey) (assay: ELISA, antigen coated on plate).
T4 construct: range 25-259; No tag or fusion partner is stated; also called cynomolgus monkey B7S1
Protocol: as §1

| EC50 [nM] | Binder |
| --- | --- |
| 8.09 | B1 |
| 7.82 | B2 |
| 3.26 | B3 |

Each binder was assayed against T3, human B7S1 (NCBI Reference Sequence: …) (assay: flow cytometry, LPS-stimulated human PBMCs).
Protocol: (§2) Peripheral blood mononuclear cells (PBMCs) contain monocytes which under stimulation would up-regulate B7S1 expression on cell surface. This example is to evaluate humanized anti-B7S1 antibody binding affinity on monocytes. Human buffy coat was diluted with PBS to according volume as twice as Ficoll (GE, 17-1440-02). The diluted buffy coat was layered gently on top of Ficoll and centrifuged at 2500 rpm for 40 min at 20° C. without brake. Carefully draw off PBMCs layer in between Ficoll and its transparent supernatant. PBS was added to 5 volumes of PBMCs and centrifuged at 1200 rpm for 10 min at 20° C. Discard supernatant and wash with PBS again. To eliminate platelets, centrifuge at 900 rpm for 8 min at 20° C. PBMCs were resuspended with culture medium (RPMI-1640 with 10% FBS and 1% PS), counted and aliquot to 96-well plate (5×10\hat{ }5 cells/well) with LPS added (100 ng/ml). After 24h incubation, cells were washed with PBS twice. For live/dead stain, LIVE/DEAD® Fixable Aqua Dead Cell Stain Kit (Life technologies, L34957) was applied (1:1000 in PBS, 100 ul/well) to cells, and incubated at 4° C. for 10 min FACS buffer (2% FBS in PBS, 100 ul/well) was added to each well to terminate staining. Centrifuge (1200 rpm, 5 min) to discard supernatant and wash with FACS buffer once. Humanized anti-B7S1 antibodies were diluted in FACS buffer to according concentrations and added to each well (100 ul/well). Cells were incubated at 4° C. for 30 min, and then, washed twice with FACS buffer. […] Cells were incubated at 4° C. for 30 min, and then, washed twice with FACS buffer. Cells were tested on flow cytometry. […] The mAbs meet the requirements for binding profile of antibody drugs.

| EC50 [nM] | Binder |
| --- | --- |
| < 3 | B1 |
| < 3 | B2 |
| < 3 | B3 |

These binders were tested against T1, human B7S1-his (Sinobiological, …) (assay: SPR, Biacore 8K, antibody captured by Fc, B7S1 as analyte).
Protocol: FIG. 1. Experimental results of Surface Plasmon Resonance (SPR) binding analysis using Biacore 8K. The data of dissociation (kd) and association (ka) rate constants were obtained using Biacore 8K evaluation software. The equilibrium dissociation constants (KD) were calculated from the ratio of kd over ka.
In addition, the affinity of the above mAbs was further analyzed by Surface Plasmon Resonance (SPR) binding analysis using Biacore 8K. SPR is the resonant oscillation of conduction electrons at the interface between negative and positive permittivity material stimulated by incident light. Antibodies were immobilized on the sensor chip through Fc capture method. Human B7S1 (Sinobiological, cat#10738-H08H-100) was used as the analyte. The data of dissociation (kd) and association (ka) rate constants were obtained using Biacore 8K evaluation software. The equilibrium dissociation constants (KD) were calculated from the ratio of kd over ka.

| Kd [nM] | koff [s⁻¹] | kon [M⁻¹ s⁻¹] | Binder |
| --- | --- | --- | --- |
| 3.24 | 0.000265 | 81700 | B1 |
| 4.08 | 0.000436 | 107000 | B2 |
| 1.86 | 0.000187 | 101000 | B3 |

Each binder was assayed against T3, human B7S1 (NCBI Reference Sequence: …) (assay: flow cytometry on LPS-stimulated human PBMCs (percentage of live PBMC stained), detection with Alexa Fluor 594 goat anti-human IgG).
Protocol: as §2

| EC50 [nM] | Binder |
| --- | --- |
| 2.6 | B1 |
| 2.4 | B2 |
| 3 | B3 |

These binders were tested against T3, human B7S1 (NCBI Reference Sequence: …) (assay: flow cytometry (mean fluorescence intensity) on BaF3 cells expressing human B7S1, detection with Alexa Fluor 594 goat anti-human IgG).
Protocol: To evaluate anti-B7S1 antibody binding affinity on cell surface over expressing B7S1, human B7S1 (NCBI Reference Sequence: NP_078902.2) was constructed on BaF3 cell line. The cells were washed with PBS and aliquot to 96-well U-bottom plate with a cell density of 5×10\hat{ }5 cells/well. For live/dead stain, LIVE/DEAD® Fixable Aqua Dead Cell Stain Kit (Life technologies, L34957) was applied (1:1000 in PBS, 100 ul/well) to cells, and incubated at 4° C. for 10 min FACS buffer (2% FBS in PBS, 100 ul/well) was added to each well to terminate staining. Centrifuge (1200 rpm, 5 min) to discard supernatant and wash with FACS buffer once. Humanized anti-B7S1 antibodies were diluted in FACS buffer to according concentrations and added to each well (100 ul/well). Cells were incubated at 4° C. for 30 min, and then, washed twice with FACS buffer. […] Cells were incubated at 4° C. for 30 min, and then, washed twice with FACS buffer. […] For example, the binding EC₅₀ of the tested mAbs is in the sub nM range.

| EC50 [nM] | Binder |
| --- | --- |
| 3.8 | B1 |
| 4.2 | B2 |
| 3.1 | B3 |
